For data set [1] the following is noted: in vivo. The source says: (§1) Other methods of assessing the toxicity of compounds include in vivo studies which administer relatively large doses of a test compound to a group of animals to determine the level which is lethal to a percentage of the population (mean lethal dose LD50 or mean lethal concentration LC50). Toxicity of a compound can also be assessed in vivo by examining whether a compound produces statistically significant negative effects on cardiac, blood pressure, central nervous system (CNS), body weight, food intake, gross or microscopic pathology, clinical pathology, or respiratory measures in an animal.
(§2) Furthermore, toxicology of the composition of formula III was also investigated in non-clinical in vivo studies in both rats and dogs.

Data set [2] in a line: stability in dog plasma (in vitro metabolic stability studies). In kind it is in vitro ADME. The procedure: (§3) For example, determination of metabolic stability is commonly examined when assessing the toxicity of a compound as it is one of several major determinates in defining the oral bioavailability and systemic clearance of a compound. After a compound is administered orally, it first encounters metabolic enzymes in the gastrointestinal lumen as well as in the intestinal epithelium. After it is absorbed into the bloodstream through the intestinal epithelium, it is first delivered to the liver via the portal vein. A compound can be effectively cleared by intestinal or hepatic metabolism before it reaches systemic circulation, a process known as first pass metabolism. The stability of a compound towards metabolism within the liver as well as extrahepatic tissues will ultimately determine the concentration of the compound found in the systemic circulation and affect its half-life and residence time within the body. Cytochrome P450 (CYP) enzymes are found primarily in the liver but also in the intestinal wall, lungs, kidneys and other extrahepatic organs and are the major enzymes involved in compound metabolism. Many compounds undergo deactivation by CYPs, either directly or by facilitated excretion from the body. […]
(§4) Further safety pharmacology was assessed in vitro using the human ether-a-go-go related gene (hERG) assay for determining possible cardio-toxic effects.

The test system of data set [3] is 9 major CYP liver enzymes. The experiment in a line: reactivity to CYP liver enzymes. In kind it is in vitro ADME. Particulars: in vitro. As to the method: as §3, §4
Data set [4] in a line: stability in rat plasma (in vitro metabolic stability studies). Type of data set: in vitro ADME. As to the method:
as §3, §4

Data set [5] in a line: mortality in dog animal model. Type of data set: in vivo. Particulars: any tested dose.
Text: as §1, §2

The nature of data set [6]: in vitro metabolic stability: breakdown into metabolites. In kind it is in vitro ADME. The procedure: as §3, §4
For data set [7], the system named is tester strains (histidine (his) biosynthetic operon mutants). The experiment in a line: Ames reverse mutation assay. In kind it is cell-based. The settings on record: any of the tested doses.
Text: The Ames reverse mutation Assay is another common toxicology assay for assessing the toxicity of a compound. The Ames Assay, utilizes several different tester strains, each with a distinct mutation in one of the genes comprising the histidine (his) biosynthetic operon (Ames, B. N., et al., (1975) Mutation Res. 31:347-363). […] The Ames Assay is capable of detecting several different types of mutations (genetic damage) that may occur in one or more of the tester strains. The practice of using an in vitro bacterial assay to evaluate the genotoxic activity of drug candidates is based on the prediction that a substance that is mutagenic in a bacterium is likely to be carcinogenic in laboratory animals, and by extension may be carcinogenic or mutagenic to humans.
as §4

The nature of data set [8]: stability in human plasma (in vitro metabolic stability studies). Type of data set: in vitro ADME. As to the method: as §3, §4
The nature of data set [9]: mortality in pig animal model. The settings on record: any tested dose. In kind it is in vivo.
Text: as §1, §2

Data set [10] can be described thus: mortality in rat animal model. Type of data set: in vivo. Particulars: any tested dose.
Text: as §1, §2

With `CC1(C)C(/C=C/C2=C(Oc3ccc(S(=O)(=O)O)cc3)C(=C/C=C3/N(CCCS(=O)(=O)O)c4ccccc4C3(C)CCCC(=O)NCCCCC(NC(=O)CCCCCCC(=O)NCCCC[C@H](NC(=O)N[C@@H](CCC(=O)O)C(=O)O)C(=O)O)C(=O)O)/CCC2)=[N+](CCCS(=O)(=O)[O-])c2ccccc21` (stereo partly drawn) [formula III], the “effects on body weight, food intake, gross or microscopic pathology and clinical pathology” value in data set [1] (dog) was “no significant effects”. Moreover, the “effects on cardiac, blood pressure or respiratory measures” value in data set [1] (dog) is listed as “no statistically significant negative effects”. Besides, the “effects on the central nervous system (CNS)” value in [1] (rat) is on record as “no biologically meaningful effects”. The stability in plasma result in data set [2], in data set [4] and in [8] was “stable” throughout. The “reactivity to CYP liver enzymes” value in data set [3] is on record as “does not show any significant reactivity”. In addition, the mortality result in data set [5], in data set [9] and in data set [10] was “No mortality” in each case. Moreover, the breakdown into metabolites result in [6] is given as “does not appear to be broken down into metabolites”. In data set [7], the mutagenicity result was “does not show any mutagenicity”.

The values are drawn from patent publication US11857645B2, “Compositions of near IR closed chain, sulfo-cyanine dyes and prostate specific membrane antigen ligands” (priority 2016, dated 2024).
